Results published in US20240254245A1 (JIANGSU HENGRUI PHARMACEUTICALS, published 2024).

T1: human RANKL protein (Sino Biological, 11682-HNCH) (human, UniProt O14788 136-317, limits assumed)
T1 construct: Bought protein
T1 sequence (looked up): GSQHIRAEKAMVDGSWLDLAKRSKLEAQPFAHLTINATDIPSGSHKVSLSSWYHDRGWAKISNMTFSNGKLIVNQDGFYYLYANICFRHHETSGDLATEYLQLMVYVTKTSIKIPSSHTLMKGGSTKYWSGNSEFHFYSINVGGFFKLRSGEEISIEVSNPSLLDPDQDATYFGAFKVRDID

B1: 5-53H (antibody, V domains shown)
VH: EVQLLESGGGLVQPGGSLRLSCAASGFTFSSYAMSWVRQAPGKGLEWVSGITGSGGSTYYADSVKGRFTISRDNSKNTLYLQMNSLRAEDTAVYYCAQDPCFTYIMSWFDPWGQGTLVTVSS
VL: EIVLTQSPGTLSLSPGERATLSCRASQSVRGRYLAWYQQKPGQAPRLLIYGASSRATGIPDRFSGSGSGTDFTLTISRLEPEDFAVFYCQQYGSSPRTFGQGTKVEIK
notes: Variable regions fused to human constant regions
B2: 5-58H (antibody, V domains shown)
VH: EVQLLESGGGLVQPGGSLRLSCAASGFTFSSYAMSWVRQAPGKGLEWVSGITGSGGSTYYADSVKGRFTISRDNSKNTLYLQMNSLRAEDTAVYYCVQDPGFTYIMSWFDPWGQGTLVTVSS
VL: EIVLTQSPGTLSLSPGERATLSCRASQSVRGRYLAWYQQKPGQAPRLLIYGASSRATGIPDRFSGSGSGTDFTLTISRLEPEDFAVFYCQQYGSSPRTFGQGTKVEIK
notes: as for B1
B3: 2-79L (antibody, V domains shown)
VH: EVQLLESGGGLVQPGGSLRLSCAASGFTFSSYAMSWVRQAPGKGLEWVSGITGSGGSTYYADSVKGRFTISRDNSKNTLYLQMNSLRAEDTAVYYCAKDPGTTVIMSWFDPWGQGTLVTVSS
VL: EIVLTQSPGTLSLSPGERATLSCRASQSVRGRYLAWYQQKPGQAPRLLIYGSSSRATGIPDRFSGSGSGTDFTLTISRLEPEDFAVFYCQQYGSSPRTFGQGTKVEIK
notes: as for B1
B4: 1-22H (antibody, V domains shown)
VH: EVQLLESGGGLVQPGGSLRLSCAASGFTFADYAMSWVRQAPGKGLEWVSGISASGSSTYYADSVKGRFTISRDNSKNTLYLQMNSLRAEDTAVYYCAKDPGTTVIMSWFDPWGQGTLVTVSS
VL: EIVLTQSPGTLSLSPGERATLSCRASQSVRGRYLAWYQQKPGQAPRLLIYGASSRATGIPDRFSGSGSGTDFTLTISRLEPEDFAVFYCQQYGSSPRTFGQGTKVEIK
notes: Variable regions were fused to human heavy and light chain constant regions to form complete chains
B5: 2-52L (antibody, V domains shown)
VH: EVQLLESGGGLVQPGGSLRLSCAASGFTFSSYAMSWVRQAPGKGLEWVSGITGSGGSTYYADSVKGRFTISRDNSKNTLYLQMNSLRAEDTAVYYCAKDPGTTVIMSWFDPWGQGTLVTVSS
VL: EIVLTQSPGTLSLSPGERATLSCRASQSVRGRYLAWYQQKPGQAPRLLIYQGSSRATGIPDRFSGSGSGTDFTLTISRLEPEDFAVFYCQQYGSSPRTFGQGTKVEIK
notes: as for B1
B6: 2-72L (antibody, V domains shown)
VH: EVQLLESGGGLVQPGGSLRLSCAASGFTFSSYAMSWVRQAPGKGLEWVSGITGSGGSTYYADSVKGRFTISRDNSKNTLYLQMNSLRAEDTAVYYCAKDPGTTVIMSWFDPWGQGTLVTVSS
VL: EIVLTQSPGTLSLSPGERATLSCRASQSLGARGLAWYQQKPGQAPRLLIYGTSSRATGIPDRFSGSGSGTDFTLTISRLEPEDFAVFYCQQYGSSPRTFGQGTKVEIK
notes: as for B1
B7: 2-76L (antibody, IgG4, V domains shown)
VH: EVQLLESGGGLVQPGGSLRLSCAASGFTFSSYAMSWVRQAPGKGLEWVSGITGSGGSTYYADSVKGRFTISRDNSKNTLYLQMNSLRAEDTAVYYCAKDPGTTVIMSWFDPWGQGTLVTVSS
VL: EIVLTQSPGTLSLSPGERATLSCRASQAIPYNQLAWYQQKPGQAPRLLIYGVSSRATGIPDRFSGSGSGTDFTLTISRLEPEDFAVFYCQQYGSSPRTFGQGTKVEIK
notes: as for B1
B8: 2-87L (antibody, IgG4, V domains shown)
VH: EVQLLESGGGLVQPGGSLRLSCAASGFTFSSYAMSWVRQAPGKGLEWVSGITGSGGSTYYADSVKGRFTISRDNSKNTLYLQMNSLRAEDTAVYYCAKDPGTTVIMSWFDPWGQGTLVTVSS
VL: EIVLTQSPGTLSLSPGERATLSCRASQYLPFHRLAWYQQKPGQAPRLLIYDTSSRATGIPDRFSGSGSGTDFTLTISRLEPEDFAVFYCQQYGSSPRTFGQGTKVEIK
notes: as for B1
B9: 3-20L (antibody, IgG4, V domains shown)
VH: EVQLLESGGGLVQPGGSLRLSCAASGFTFSSYAMSWVRQAPGKGLEWVSGITGSGGSTYYADSVKGRFTISRDNSKNTLYLQMNSLRAEDTAVYYCAKDPGTTVIMSWFDPWGQGTLVTVSS
VL: EIVLTQSPGTLSLSPGERATLSCRASQAIRGPNLAWYQQKPGQAPRLLIYDTSSRATGIPDRFSGSGSGTDFTLTISRLEPEDFAVFYCQQYGSSPRTFGQGTKVEIK
notes: as for B1
B10: 3-37L (antibody, IgG4, V domains shown)
VH: EVQLLESGGGLVQPGGSLRLSCAASGFTFSSYAMSWVRQAPGKGLEWVSGITGSGGSTYYADSVKGRFTISRDNSKNTLYLQMNSLRAEDTAVYYCAKDPGTTVIMSWFDPWGQGTLVTVSS
VL: EIVLTQSPGTLSLSPGERATLSCRASQAIRGRKLAWYQQKPGQAPRLLIYDTSSRATGIPDRFSGSGSGTDFTLTISRLEPEDFAVFYCQQYGSSPRTFGQGTKVEIK
notes: as for B1
B11: 3-83L (antibody, V domains shown)
VH: EVQLLESGGGLVQPGGSLRLSCAASGFTFSSYAMSWVRQAPGKGLEWVSGITGSGGSTYYADSVKGRFTISRDNSKNTLYLQMNSLRAEDTAVYYCAKDPGTTVIMSWFDPWGQGTLVTVSS
VL: EIVLTQSPGTLSLSPGERATLSCRASQALGVRGLAWYQQKPGQAPRLLIYGASSRATGIPDRFSGSGSGTDFTLTISRLEPEDFAVFYCQQYGSSPRTFGQGTKVEIK
notes: as for B1
B12: 3-85L (antibody, V domains shown)
VH: EVQLLESGGGLVQPGGSLRLSCAASGFTFSSYAMSWVRQAPGKGLEWVSGITGSGGSTYYADSVKGRFTISRDNSKNTLYLQMNSLRAEDTAVYYCAKDPGTTVIMSWFDPWGQGTLVTVSS
VL: EIVLTQSPGTLSLSPGERATLSCRASQSIPGPRLAWYQQKPGQAPRLLIYGASSRATGIPDRFSGSGSGTDFTLTISRLEPEDFAVFYCQQYGSSPRTFGQGTKVEIK
notes: as for B1
B13: 4-64L (antibody, V domains shown)
VH: EVQLLESGGGLVQPGGSLRLSCAASGFTFSSYAMSWVRQAPGKGLEWVSGITGSGGSTYYADSVKGRFTISRDNSKNTLYLQMNSLRAEDTAVYYCAKDPGTTVIMSWFDPWGQGTLVTVSS
VL: EIVLTQSPGTLSLSPGERATLSCRASQSVRGRYLAWYQQKPGQAPRLLIYGASSRATGIPDRFSGSGSGTDFTLTISRLEPEDFAVFYCQQYGSSPRIFGQGTKVEIK
notes: as for B1
B14: 5-16H (antibody, V domains shown)
VH: EVQLLESGGGLVQPGGSLRLSCAASGFTFSSYAMSWVRQAPGKGLEWVSGITGSGGSTYYADSVKGRFTISRDNSKNTLYLQMNSLRAEDTAVYYCAKDPASIVIMSWFDPWGQGTLVTVSS
VL: EIVLTQSPGTLSLSPGERATLSCRASQSVRGRYLAWYQQKPGQAPRLLIYGASSRATGIPDRFSGSGSGTDFTLTISRLEPEDFAVFYCQQYGSSPRTFGQGTKVEIK
notes: as for B1
B15: 5-51H (antibody, V domains shown)
VH: EVQLLESGGGLVQPGGSLRLSCAASGFTFSSYAMSWVRQAPGKGLEWVSGITGSGGSTYYADSVKGRFTISRDNSKNTLYLQMNSLRAEDTAVYYCAKDPCFSYIMSWFDPWGQGTLVTVSS
VL: EIVLTQSPGTLSLSPGERATLSCRASQSVRGRYLAWYQQKPGQAPRLLIYGASSRATGIPDRFSGSGSGTDFTLTISRLEPEDFAVFYCQQYGSSPRTFGQGTKVEIK
notes: as for B1

target: T1, human RANKL protein (Sino Biological, …); test: blocking ELISA: antibody titrated with fixed biotin-human RANKL, on coated human RANK
Method: After the incubation was complete, the plate was washed 3 times with PBST. Streptavidin-HRP (Invitrogen, 434323, diluted at 1:4000) was added at 100 μL/well, and the plate was incubated at 37° C. for 1 h. The supernatant was removed. After the plate was washed 3 times with PBST, TMB chromogenic substrate (KPL, 5120-0077) was added at 100 μL/well, and the plate was incubated at room temperature for 10 to 15 min. […] The absorbance values at 450 nm were taken using a microplate reader.

Binder | IC50
B1 | 1.37 nM
B2 | 0.999 nM

target: T1, human RANKL protein (Sino Biological, …); test: SPR (Biacore), antibody captured on Protein A chip, RANKL in flow, 1:1 fit
Method: Reaction signals were detected in real time by using Biacore, and binding and dissociation curves were obtained. After dissociation was complete in each cycle, the biochip was washed and regenerated with a glycine-hydrochloric acid regeneration solution (GE, BR-1003-54) having a pH of 1.5. Fitting was performed on the experimental data using BIAevaluation version 4.1 software with a 1:1 model, and affinity values were obtained.

Binder | Kd | Ratio of affinities (fold increase in affinity relative to denosumab) | koff | kon
B3 | 16.3 nM | 0.57 fold | 0.000232 s⁻¹ | 14200 M⁻¹ s⁻¹
B4 | 9.81 nM | 0.94 fold | 0.000253 s⁻¹ | 25800 M⁻¹ s⁻¹
B5 | 14.2 nM | 0.65 fold | 0.000222 s⁻¹ | 15700 M⁻¹ s⁻¹
B6 | 19 nM | 0.49 fold | 0.000308 s⁻¹ | 16200 M⁻¹ s⁻¹
B7 | 20.3 nM | 0.46 fold | 0.000341 s⁻¹ | 16800 M⁻¹ s⁻¹
B8 | 25.6 nM | 0.36 fold | 0.000273 s⁻¹ | 10700 M⁻¹ s⁻¹
B9 | 13.5 nM | 0.68 fold | 0.000272 s⁻¹ | 20100 M⁻¹ s⁻¹
B10 | 19.7 nM | 0.47 fold | 0.000305 s⁻¹ | 15500 M⁻¹ s⁻¹
B11 | 20.7 nM | 0.45 fold | 0.000322 s⁻¹ | 15600 M⁻¹ s⁻¹
B12 | 22.3 nM | 0.41 fold | 0.000335 s⁻¹ | 15000 M⁻¹ s⁻¹
B13 | 17.1 nM | 0.54 fold | 0.000253 s⁻¹ | 14800 M⁻¹ s⁻¹
B14 | 8.91 nM | 1.04 fold | 0.00026 s⁻¹ | 29200 M⁻¹ s⁻¹
B15 | 23.6 nM | 0.39 fold | 0.00069 s⁻¹ | 29200 M⁻¹ s⁻¹
B1 | 34 nM | 0.27 fold | 0.000583 s⁻¹ | 17200 M⁻¹ s⁻¹
B2 | 41 nM | 0.23 fold | 0.000501 s⁻¹ | 12200 M⁻¹ s⁻¹
